“And” between values parts separate entries of the source, which are not always exact repeats. Equal values may be shown once.
Molecular target: the molecule itself
Assay: crystal structure

B1: African swine fever virus p15 (mature protein p15, wild type) (natural protein)
chain: MPSNMKQFCKISVWLQQHDPDLLEIINNLCMLGNLSAAKYKHGVTFIYPKQAKIRDEIKKHAYSNDPSQAIKTLESLILPFYIPTPAEFTGEIGSYTGVKLEVEKTEANKVILKNGEAVLVPAADFKPFPDRRLAVWIMESGSMPLEGPPYKRKKEGG
With B1 the “stoichiometry N” value was 2 and 6.
